The record followed here is PMC3434177, “Agnathan VIP, PACAP and Their Receptors: Ancestral Origins of Today's Highly Diversified Forms” (PLoS ONE, 2012).

One assay has as its system hfVPACa. Briefly: cAMP accumulation (LANCE cAMP assay) in COS-7 cells transiently transfected with hfVPACa. Format: cell-based, inshore hagfish (Eptatretus burgeri). The conditions noted are these: 100 nM peptide, 30 min, at least 4 experiments in duplicates. Here is the method: To investigate the functional properties of the proteins encoded by the agnathan VPAC receptor cDNAs, various vertebrate secretin superfamily peptides at a 100 nM concentration were employed to determine their abilities to stimulate cAMP production in transiently transfected COS-7 cells with hfVPACa or hfVPACb. As jlpVPAC was indicated to be orthologous to hfVPACa by phylogenetic analysis, only the hfVPAC receptors were tested (Figure 4). […] The hfVPACa was further studied using graded concentrations of VIP/PACAP peptides from various vertebrates including sea lamprey (Figure 4C and 4D).
Figure 4 Functional characterization of hfVPACa and hfVPACb. Intracellular cAMP accumulation in response to 100 nM vertebrate superfamily peptides on COS-7 cells transiently transfected with (A) hfVPACa and (B) hfVPACb. Peptide species: slp, sea lamprey; gf, goldfish; h, human; o, ovine; zf, zebrafish; x, Xenopus; ct, catfish and cp, carp. Data represent the mean ± S.E.M. of at least 4 experiments performed in duplicates, p<0.01 is denoted by “*”. […] Data are expressed as the mean ± S.E.M. of at least 6 experiments performed in duplicates. […] Data are expressed as the mean ± S.E.M. of at least 4 experiments. RFU, relative fluorescence units. (G) Shown are representative of confocal fluorescence images of CHO-K1 cells expressing (i) hfVPACa-pEYFP, (ii) hfVPACb-pEYFP and (iii) pEYFP-N1.
African green monkey kidney (COS-7) and Chinese hamster ovary (CHO-K1) cells (ATCC, Manassas, VA) were cultured in 10% FBS/100 U/ml Penicillin/[…] Streptomycin supplemented DMEM and MEM respectively in a 5% (v/v) CO2 humidified chamber at 37°C and passaged twice per week using Trypsin-EDTA (TE) (Invitrogen) on Nunc^TM Surface (Nunc, Denmark) tissue culture flasks. […] For cAMP assays, COS-7 cells were stimulated for 30 mins with either fixed ([…]) or varying (10^−6 to 10^−12 M) concentrations before taking measurements using the LANCE cAMP assay kit (Perkin-Elmer, Waltham, MA) in the Victor x4 multilabel reader (Perkin-Elmer) according to the manufacturer's protocol. […]
Background: Changes in cAMP serve as a functional read-out for many G protein-coupled receptors.

The target in assay [1] is inshore hagfish (Eptatretus burgeri) VPAC receptor a (inshore hagfish (Eptatretus burgeri)).
Assay [2] shares this target. The source holds these as a separate data set.
The target in assay [3] is inshore hagfish (Eptatretus burgeri) VPAC receptor b (inshore hagfish (Eptatretus burgeri)).

As for GLP-1, the “ability to stimulate cAMP production at a fixed peptide concentration” value in the assay with hfVPACa is listed as “weakly or unable to do so”.
The same measure, in the same setting: next, GLP-2: “weakly or unable to do so”.
On the same count and under the same terms, with “glucagon: Glucagon (goldfish), synthetic peptide (HSEGTFSNDYSKYLETRRAQDFVEWLMNS; Glucagon; UniProt P79695 50-78, looked up)” the entry was “weakly or unable to do so”.
In assay [1], human VIP (peptide) registered an intracellular cAMP accumulation (LANCE cAMP assay) in COS-7 cells transiently expressing hfVPACa, graded peptide concentrations 10^-6 to 10^-12 M, EC50 of 1.74 nM.
Same read-out and setting: with ovine PACAP-27 (peptide) the figure was 0.895 nM.
Regarding sea lamprey PACAP-27 (peptide), the intracellular cAMP accumulation (LANCE cAMP assay) in COS-7 cells transiently expressing hfVPACa, graded peptide concentrations 10^-6 to 10^-12 M, EC50 in assay [1] was found to be 5.92 nM. The intracellular calcium elevation (Fluo-4 calcium assay) in CHO-K1 cells transiently expressing hfVPACa, graded peptide concentrations 10^-6 to 10^-12 M, EC50 in assay [2] turned out to be 1.39 nM. The intracellular calcium elevation (Fluo-4 calcium assay) in CHO-K1 cells transiently expressing hfVPACb, graded peptide concentrations 10^-6 to 10^-12 M, EC50 in assay [3] was 27.8 nM.
